Data from a protein production outcome set (Wang et al. 2014).

Experiment: label from the status in PepcDB records

MSKKIRNTEVDHLFDAILTLENKEECYTFFEDVCTVNELLSISQRYEVAKMLREGKTYLDISNATGASTATISRVNRSLNYGNDGYDMVLERVLKKDE
protein production: not failed

MPQPGLTTPDNDALPWQTTLLLALQHVLVVAATPITSVFLIAKALHFTDTVTASVLSATFLMCGLGAILQSLGVKGVGARLPFIMVPGGAPIAIFVAIALQTNIQTAIGAVILTSLFYFIALPIFRRCLHHFPPFIIGIMLLMVSINLIRLYGGLIIGQPGSADFAHPTSIILSLGTILITLIFALAFSGILRQLAVMFGLLAGTLLGMALGSTDFSGVSHGPLFSFPQLLPFGWPIFDLSASLPLLIYAVISMAEATGQTIATAEIVNSTQNVQQAIPRTIRGDAVMSLLGGIFGTSLIITSGENIGVVRTTNVKSRFVTAAAGGLLILIAIFAPLVRLATCLPGSVVCGTAVIVFSIIGVIGIDMIAREPLHTPGKTYALAMGLAMGMLPILVPGLYQNFPAGVQMVFGNGMAAGTLTAILVNSLFNWSEKRTQARVKS
protein production: failed

MQSLHGNCLIAYARHKYILTMVNGEYRYFNGGDLVFADASQIRVDKCVENFVFVSRDTLSLFLPMLKEEALNLHAHKKVSSLLVHHCSRDIPVFQEVAQLSQNKNLRYAEMLRKRALIFALLSVFLEDEHFIPLLLNVLQPNMRTRVCTVINNNIAHEWTLARIASELLMSPSLLKKKLREEETSYSQLLTECRMQRALQLIVIHGFSIKRVAVSCGYHSVSYFIYVFRNYYGMTPTEYQERSAQRLSNRDSAASIVAQGNFYGTDRSAEGIRL
protein production: failed

MPVLATSLVSLKVEEPYLPPRNWESLPSQSGRFLPPTRSSASSSSSSSFVSESSLVRLALNALQGVESSLISIEQLSSAFCSEPADRTFHKIPSLWHRLSSTDALGQILRDIGCFGSLVFLLHKFVDHFTRLNLDVESAVEGQGSCKIGENEEVNNKSCYTLVNQAFAIAVRRVLEGYISGLDTLCASIELRRSSNIVDGSDHGSSRLGSLTNVVHPKITLLEVFLHTRELRTQIEALANICDLYDIALSYCASPWECLITEATTRFHGFYRGSDLLTYLYSQLQVADPTHSAMLKFLFLKTCEPYCEFIRSWMFKAELNDPHKEFIVECRSESTSFSWNKPGISPLKSVRERGGLVPCFLNGFLEPIVRAGQQLQVITKLLELCNLPASGHKNYTDLLPCWTYFSTTSPGYPSPITFSKLHIEVMIKKRDDYYRMMQEKLGDFSEKFEVFPGQVPGAISLPISYGDGDKNSIYFTLDESLLIPSTMAIDLTRDQSGSDSDDQNTEDRWFSEIDASCSSECSSTRDSLEASEVGLLDSQSTLVGPPPNYLSALRFSVASNGNCNQNLVQHSDSGYIDNNLVRQGEKADINHQWVDTKPEESTGVCEDDKFRGPLLIKSWPLGGLPRNPFCVDKKSADDDSEDPRNYSGARMEQRHLMNTDERKLFLNNISTSGSCSKHERRHDVLENCLSSKLDLMKDTKVNYPNDVLSMNPLVRCDFLRKHGNTNKRNQGKSLPWFDFSAVDDPSKTCITRIPVRVPIDFQKESHSPQTDRKSHRHANQERFDVEDPKVSSSQLSSGIKGCAEEKKSNAFGGGRWESMLRRSNNPETSAFSDRRQDSSGTFELPLDFVIDKCLLQEIHLQYPSRYFHLLEIYIFSKLAIKLLEEGFGLQEHLLALRRYHFMELADWADVFVVSLWHHKWLVTEADKRIAEIQGFLESSIQRSSCERDICKDRIFLYKRQGTMHIPPSTIGVRSFDFLRLGYRVDWPISIILTCDALTAYADVFSFLVQVKLAAYVLTDVWCSLKVKDMMDLESVHMAYLSEALRIGIQSTDRVPNDSWTKTLGINTSQNFDKELKELHKCHLRSPKHGKYGLSRFWDYLNFNLYYSDILHDSNIFSLIP
protein production: failed

LAKILGMDSDGLNRLECFDISHTQGEATIASCVVYDEQNIQPSQYRRYNITTAKPGDDYAAMREVLTRRYGKMQEAEANGETVKWPDAVLIDGGKGQIGVAVSVWEELGLHIPLVGIAKGPERKAGMEELILPFTGEVFRLPPNSPALHLLQTVRDESHRFAI
protein production: failed

RYREGLSEALKEPEAKDPGFLERLVALYEEGGEDLLTPPGRVDVRVGEVEGLALVQAGFQKGEWLGELTLIGPLRMRYAEALSVAFSLSQVYTGQHAD
protein production: failed

SAAETRNVAGAEAPPPQKRYYRQRAHSNPMADHTLRYPVKPEEMDWSELYPEFFAPLTQNQSHDDPKDKKEKRAQAQVEFADIGCGYGGLLVELSPLFPDTLILGLEIRVKVSDYVQDRIRALRAAPAGGFQNIACLRSNAMKHLPNFFYKGQLTKMFFLFPDPHFKRTKHKWRIISPTLLAEYAYVLRVGGLVYTITDVLELHDWMCTHFEEHPLFERVPLEDLSEDPVVGHLGTSTEEGKKVLRNGGKNFPAIFRRIQDPVLQAVTSQTSLPGH
protein production: not failed

MDVFATGAGQVDPAKVLSPGLVYDATTEDYLKFIQGTGMDLGMEGLGTTQARDMNVPSFALGNLAGKIEVTRTLTALTPGTYRASVNVPGVNVKVTPSVLTFGAPGEKKTFKVQFENNNAALGKFAMGSLNWQGANKTVTSPIAVRPLEHHHHHH
protein production: failed

MTEKNTLKKSATLAAAGLVVAGALLAGCGESKATPMDDAYAGNSGETEKSQEEQSQSQSNGSDSSDGSDSGSSHNDPSTTTSDKKDTGNYKDGNYSINGQYGPVGEDSIDVHLTIKDGNVETVKIIGHPFTTISKNHQDDFAKAINGVVDGKPLKGLKVDKVAGASWTSDAFNKALEVARQEASIQE
protein production: failed

MRQRTIVCPLIQNDGCYLLCKMADNRGVFPGQWALSGGGVEPGERIEEALRREIREELGEQLILSDITPWTFRDDIRIKTYADGRQEEIYMIYLIFDCVSANRDICINDEFQDYAWVAPAALALYDLNVATRHTLALKGLL
protein production: not failed

MNDTLLNAYSGIKTHQFGIDSLSNNIANVNTLGYRSNDPEFKTLFSSHLDALNAKSVVANDRNYGVTGSGNVLSNKDGEYMPSEGEFHMAYQGKGWFVIGPNKNGEITINKDGFSKKQDNFLTRAGNFARDADGYLVTPEGYYVYGIDLKKIKDGTLNSTARDEDIEKLHGNTLSPLQIPQDLTYQPVLSTKVNISVNLNPKDHLKGVQDFFLNDKGEIIKERFLNQDINALANNDNEPIDAITNRKLNISIQKEDGKKEDFVFTYGDAEKGENQFKTLGDLQKLLKEKTGLDLNLIKSEKDAKSPPLLLEIANPSQTPITFSLSGGIADKLGLKADGMELKKGISRDSVAIKIPYYSTEVDIYDKAGDKYLLQSEYYMTNSNDPTSSPTSKRKNQTWEVKSYIADPKNKTPINDPTWEIVGFDSATHKMKSAPMTLDFKGNKLTYSLDKSENHDSSDLSYQDSKLLEASQDGKPRGIFRDMRIEENGVISLAFSNGVVEPVARIGILAFTNDQGLRKIGGNLYEMQEGTINGENRPLSGNPILGWDEEGKLKFGKIRHKYLETSNVNAGNALTNLILMQRGYSMNARAFGAGDDMIKEAISLKK
protein production: failed

MGHHHHHHSHPAEYNISPETRRAQAERLAIRAQLKREYLLQYNDPNRRGLIENPALLRWAYARTINVYPNFRPTPKNSLMGALCGFGPLIFIYYIIKTERDRKEKLIQEGKLDRTFHLSY
protein production: failed

MTIQLTVPTIACEACAEAVTKAVQNEDAQATVQVDLTSKKVTITSALGEEQLRTAIASAGHEVE
protein production: not failed

MRLNKLFILYSLFGILMASCIKDEAPNAEADITGISFEEDVLASARFNLNPSYNDNLQAYPILVKVKEGTPLNKLSPLFELTPGATISPESGSEHDFSDGKRVKYTVTSENKAWQRVYSIGVREQSVSDIPNEFHFEDIRLINGINPKYKYQEFYEEQDGLELTWASGNEGFNWAASSSATENYPTSQYDNGKNGKCAKLETRLTGSLGAMVGMPIAAGNLFIGEFDMTNALTSPLKATHFGTPFCYKPSRLKGWYKYKAGERFYENGGYTDRKDVMNIYAIFYEGESYNEAGEVTEVILDGNLPNQNYEHPSMVALALISNPHETDDWEAFDIPFDYQRYGKEIDETKLAKGKYKLSIIFASSKNGATFEGAPGSTLLVDDVELIFE
protein production: failed

MEFHLPSVPMRKILSYLDAFSLLQIAQVNKRWNTFASTDVLWRKFCLKRWFFYEVVTLELLGTESWKQFFVCRTRQERAKSRAKPEDFTYKEIPVEIGAPRNAYYISGCGLTRDGQGKSVICVVTSMNTISTWDLHKGAVTWVSPVQPSYIKILATLPEMHIAVTVDIESTIKLWDCHNREALATNNMLSSCQSLKAVFTKDGPVVLAGDTSGNLLIFRIPDLHLISRVHVFQYGINELYCSPQKKWVFLSKKHSQILPKVFFMSSLLRTSEFSAPASTILSFPLCQRAFWTPRREDRITLMSIKGSKKITTFVTFDIKLEKEEIGNKIRVKEYAIANFSLKKFEDTLEWMGVSDKNVIVCSTGSSLLIYSITGLHLQTFPYGPGEILRLSVDPLHVIVTFIDGSLELFAWEERSPLLRRCYRLYNKRHMLHRRFVNKTLCDDVSIVRVMTNVPSSSFLMVYTLNNGS
protein production: failed

MSHTLKSVAEDWFAIKKTTITEVTAKSLWRKFENHVFPKLGHRPIDKILAPEAIEALKPLAAKGNLETTGKIIGHLNNIMTHAVNTGILHHNPLSGIRSAFSAPKVTNLEHHHHHH
protein production: not failed

MQPYEKYLKLNSQKLRADQTDTERKLWQRINRDQLLGFRFNRQKPLLSYIVDFYCAKTKLIIELDGSQHYKPDYQEKDALRDAELNSLGFTVMRFSNDEVMREIEAVVEQIYLFLENVRTD
protein production: failed

MFRTALRNVFAHKARLLMTVLAVMLGVAFVSGTLVFADTLSNAFRNQSAKSYQDVAVAVTSYADSDNPKDEYALSDEVLDRISAVDGVAGVYGRVEGFAGVADPDGKLIGVGWSNKGSNFAPGKDGKDAAYTFTDGSGPVKDDQIALDEDSAGKGEYQVGDRVRVATNGPVKEYTLSGVFTTEDGAVNAGGSLVLFDTAVAQKQYLRPGYFESATVAAAPGADDARILKAVEPLLPDTAEAQTGRALADEQADQIEQGMGNLKQVLLGFAGIALFVGIFLISNTFTMLVAQRTKEIALMRAVGASRRQITRSVLAEAALVGLVASAVGFALGVGLAVGLRSGMAAFDMKMPAGPLVLSATPVVAAFAVGVLITVFAAWLPGRRAAKIPPVAAMNS
protein production: failed

MFKRIGLISIALSLNTISFTSEACSALVFNKNKPATVAVNLDWKYREGAFVIHPRNAMMVSSVDYHSMHPLIWKSQYGSVIFHGGNRFKAGPSADGMNEKGLTASILMLDSSIYPSNSELPALKTTEWVQYILDNFQTVQEVIDDSSNYQLVADTYRGITMNVHLMVSDAEGKSAVFEYLDGKLVIHTQDNLTTPVLTNTDYKLSLALLEEYQDHGGSKALPGGYDSKSRFVRAAHYLKKLPSFIAKEEHIAYAFNGLNVVTQAPGTSSPTQLSMVFDIPTKTIYFRSINEAALRVIPMDSIDFDYLYQPIALNVYQHLSGDVTDKFQPMIG
protein production: failed

MSLEEVIEQLREANEPVPVPLELPDEDQLVEIEEQLFINIPFVFKEFLLTVSDVVYGSLEPVTVTDPQSHTYLPEVCATAWDLGVPRELIPICQDGEDYYCVEEDGTVLLWSAEEELVTEESWESVWHWARDVWLESEGHHHHHH
protein production: not failed

GYAVSVRVGGKEHRHWERYDIDSDFLIPADSFDFVIGRLGPEAAIPDLSGESCEVVIDGQIVMTGIIGSQRHGKSKGSRELSLSGRDLAGFLVDCSAPQLNVKGMTVLDAAKKLAAPWPQIKAVVLKAENNPALGKIDIEPGETVWQALTHIANSVGLHPWLEPDGTLVVGGADYSSPPVATLCWSRTDSRCNIERMDIEWDTDNRFSEVTFLAQSHGRSGDSAKHDLKWVYKDPTMTLHRPKTVVVSDADNLAALQKQAKKQLADWRLEGFTLTITVGGHKTRDGVLWQPGLRVHVIDDEHGIDAVFFLMGRRFMLSRMDGTQTELRLKEDGIWTPDAYPK
protein production: not failed

MKFEILQQLNAERAARRPAIVVTDTATGAQRLVKAADIAADPLAAELGKQLRMGKSASIEIDGRKLFLNVYAPTAKLVIVGAVHISQALAPLARSLGYDVTVVDPRTAFASPERFPDVPLIAEWPDVALPPLNIDHYTAFVALTHDPKIDDPALLHAFARDCFYIGALGSKKTHAKRLERLKGQGASDADLGRIHAPIGLAIGAVSPSEIAVSIMAEITAALRLPASSKAAAA
protein production: failed
